Measurements published in patent US20210395361A1 (Alector, published 2021).

T1: Histidine-tagged human Siglec-5 (NovoProtein) (human, UniProt O15389 17-434, limits assumed)
T1 construct: Bought soluble protein; also called His-tagged human Siglec-5; not shown: histidine tag
T1 sequence: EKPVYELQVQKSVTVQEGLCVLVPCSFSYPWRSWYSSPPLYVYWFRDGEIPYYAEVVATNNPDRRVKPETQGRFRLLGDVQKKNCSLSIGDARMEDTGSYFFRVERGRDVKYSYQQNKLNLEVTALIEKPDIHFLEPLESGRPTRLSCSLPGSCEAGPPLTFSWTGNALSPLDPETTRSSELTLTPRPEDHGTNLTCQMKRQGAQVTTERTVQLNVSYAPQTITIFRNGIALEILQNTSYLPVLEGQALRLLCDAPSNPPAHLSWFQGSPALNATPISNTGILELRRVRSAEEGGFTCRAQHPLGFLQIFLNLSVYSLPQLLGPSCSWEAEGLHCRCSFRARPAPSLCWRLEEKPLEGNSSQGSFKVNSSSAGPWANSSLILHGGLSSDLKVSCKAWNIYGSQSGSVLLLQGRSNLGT

T2: human Siglec-14 (human, UniProt Q08ET2 17-396)
T2 construct: also called CHO-S14; CHO-S hSiglec-14
T2 sequence: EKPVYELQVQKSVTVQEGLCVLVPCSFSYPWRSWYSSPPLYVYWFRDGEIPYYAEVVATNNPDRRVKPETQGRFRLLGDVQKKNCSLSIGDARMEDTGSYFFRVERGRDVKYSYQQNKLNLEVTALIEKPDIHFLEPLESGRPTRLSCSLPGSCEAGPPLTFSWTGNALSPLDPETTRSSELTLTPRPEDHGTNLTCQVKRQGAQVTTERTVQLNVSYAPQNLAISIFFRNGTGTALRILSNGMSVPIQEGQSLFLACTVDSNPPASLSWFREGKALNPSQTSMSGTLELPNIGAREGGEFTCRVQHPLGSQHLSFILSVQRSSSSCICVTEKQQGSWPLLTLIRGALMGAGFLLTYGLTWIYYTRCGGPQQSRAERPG

T3: human Siglec-5 (human, UniProt O15389 17-551)
T3 construct: also called CHO-S5; CHO-S hSiglec-5
T3 sequence: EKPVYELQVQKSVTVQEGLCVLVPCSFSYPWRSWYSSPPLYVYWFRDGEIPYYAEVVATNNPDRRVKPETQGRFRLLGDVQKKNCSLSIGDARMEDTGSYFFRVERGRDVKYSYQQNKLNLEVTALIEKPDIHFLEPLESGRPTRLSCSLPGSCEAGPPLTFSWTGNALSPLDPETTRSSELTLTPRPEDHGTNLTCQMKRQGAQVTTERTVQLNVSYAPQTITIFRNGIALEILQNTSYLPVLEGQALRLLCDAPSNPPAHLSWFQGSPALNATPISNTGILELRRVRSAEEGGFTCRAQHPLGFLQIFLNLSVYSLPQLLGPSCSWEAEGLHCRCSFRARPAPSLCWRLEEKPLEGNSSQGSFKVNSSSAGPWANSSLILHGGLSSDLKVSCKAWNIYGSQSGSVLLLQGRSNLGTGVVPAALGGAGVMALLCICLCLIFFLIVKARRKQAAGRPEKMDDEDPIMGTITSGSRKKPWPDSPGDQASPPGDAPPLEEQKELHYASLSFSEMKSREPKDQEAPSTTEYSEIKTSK


Legend:
[1] = target: T1, Histidine-tagged human Siglec-5 …; test: array SPR, antibody immobilized, His-tagged human Siglec-5 (0-500 nM) in solution; apparent affinity
Experimental: The apparent binding affinities of the anti-Siglec-5 antibodies were measured by array surface plasmon resonance (SPR), according to standard techniques (Abdiche, et al. (2016) MAbs 8:264-277). Briefly, anti-Siglec-5 antibodies were immobilized on a HC 30M chip at four different densities, at antibody concentration of 10 μg/mL, 2.5 μg/mL, 0.63 μg/mL, and 0.16 μg/mL. Varying concentrations (0-500 nM) of Histidine-tagged human Siglec-5 or cynomolgus Siglec-5 (NovoProtein) were then bound to the captured anti-Siglec-5 surface (5 min injection time, 15 min dissociation time) in HBS-EP⁺/1 mg/mL BSA running buffer. Kinetic analysis was performed using Carterra software to extract association and dissociation rate constants (kₐ and kd, respectively) for each antibody. Apparent affinity constants (KD) were calculated from the ratio kd/kₐ. None of the anti-Siglec-5 antibodies bound to cynomolgus Siglec-5 protein.

[2] = target: T2, human Siglec-14; test: FACS titration, CHO-S hSiglec-14 cells, anti-human IgG secondary; y-axis Fold over isotype, x-axis Antibody (nM), log scale; the same flat line on CHO-S Parental cells
Experimental: (§1) CHO cells were incubated with increasing concentrations of anti-Siglec-5 antibody, as indicated on the x-axis of each plot. The binding of anti-Siglec-5 antibodies to the surface of CHO cells was then measured by FACS. The y-axis provides the binding of each indicated anti-Siglec-5 antibody to the surface of CHO cells relative to hIgG1 isotype control antibodies. S5-174-H2L1 refers to antibody S5-174-H3; S5-174-H3L1 refers to antibody S5-174-H5; S5-174-H3L2 refers to antibody S5-174-H6; S5-174-H4L1 refers to antibody S5-174-H7; S5-174-H4L2 refers to antibody S5-174-H8; S5-G03-H2L1 refers to antibody S5-G-03-H4; S5-G03-H2L2 refers to antibody S5-G-03-H5; S5-G03-H3L1 refers to antibody S5-G-03-H7; S5-G03-H3L2 refers to antibody S5-G-03-H8; and S5-G03-H3L3 refers to antibody S5-G-03-H9.
(§2) Various anti-Siglec-5 antibodies of the present disclosure were evaluated for their ability to bind to CHO cells which were stably transfected with human Siglec-5 (CHO-S5) or human Siglec-14 (CHO-S14). Cells were incubated with various dilutions of anti-Siglec-5 antibodies for 30 minutes on ice in the dark, followed by a 30-minute incubation with a fluorescently conjugated anti-human IgG secondary antibody. Cells were then washed twice in FACS buffer (PBS+2% FBS, 2 mM EDTA), and flow cytometry was performed on a BD FACS Canto. Data were analyzed using FlowJo software (Ashland, Oreg.). In FIG. 9, hIgG1 refers to isotype control antibodies; S5-174-H2L1 refers to antibody S5-174-H3; S5-174-H3L1 refers to antibody S5-174-H5; S5-174-H3L2 refers to antibody S5-174-H6; S5-174-H4L1 refers to antibody S5-174-H7; S5-174-H4L2 refers to antibody S5-174-H8; S5-G03-H2L1 refers to antibody S5-G-03-H4; S5-G03-H2L2 refers to antibody S5-G-03-H5; S5-G03-H3L1 refers to antibody S5-G-03-H7; S5-G03-H3L2 refers to antibody S5-G-03-H8; and S5-G03-H3L3 refers to antibody S5-G-03-H9.

[3] = target: T3, human Siglec-5; test: FACS titration, CHO-S hSiglec-5 cells, anti-human IgG secondary; y-axis Fold over isotype, x-axis Antibody (nM), log scale
Experimental: as §1, §2

Row | Binder | Kd [1] [nM] | koff [1] [s⁻¹] | kon [1] [M⁻¹ s⁻¹] | binding result [3] | binding result [2]
1 | S5-G-03 (antibody, V domains shown, Mouse-derived variable domains; expressed in mammalian cells as full antibody; hIgG1 isotype control; also called SG-5-03) VH: QAYLQQSGGGLVQPGQSLKLSCAASGFTFSTYGMSWVRQTPDKRLELVATINSNGDNTYYPDSVKGRFTISRDNANNTLYLQMSSLKSEDTAMYFCARAWPSITTVFAPYTLDYWGQGTSVTVSS VL: DIVLTQSPAIMSASPGEKVTMTCRASSSVSSSFLHWYQQKSGASPKLWIYSTSNLASGVPTRFSGSGSGTSYSLSISSVEAEDTATYFCQQYSGYPLTFGGGTKLEIK | 7.1 | 0.0001 | 14000 |  | no binding (tested: last point between 1 and 10 nM)
2 | S5-G-03-H8 (antibody, V domains shown, Humanized variant of S5-G-03; also called S5-G03-H3L2; SG-5-03-H8) VH: EVQLLQSGGGLVQPGGSLRLSCAASGFTFSTYGMSWVRQAPGKGLELVATINSNGDNTYYADSVKGRFTISRDNSKNTLYLQMNSLRAEDTAVYYCARAWPSITTVFAPYTLDYWGQGTLVTVSS VL: DIQMTQSPSSLSASVGDRVTITCRASSSVSSSFLHWYQQKPGKAPKLWIYSTSNLASGVPSRFSGSGSGTDYTLTISSLQPEDFATYYCQQYSGYPLTFGQGTKLEIK |  |  |  | binds | no binding (tested: last point between 1 and 10 nM)
3 | S5-G-03-H7 (antibody, V domains shown, Humanized variant of S5-G-03; also called S5-G03-H3L1) VH: EVQLLQSGGGLVQPGGSLRLSCAASGFTFSTYGMSWVRQAPGKGLELVATINSNGDNTYYADSVKGRFTISRDNSKNTLYLQMNSLRAEDTAVYYCARAWPSITTVFAPYTLDYWGQGTLVTVSS VL: DIQMTQSPSSLSASVGDRVTITCRASSSVSSSFLHWYQQKPGKAPKLLIYSTSNLASGVPSRFSGSGSGTDFTLTISSLQPEDFATYYCQQYSGYPLTFGQGTKLEIK |  |  |  | binds | no binding (tested: last point between 1 and 10 nM)
4 | S5-G-03-H4 (antibody, V domains shown, Humanized variant of S5-G-03; also called S5-G03-H2L1) VH: EVQLLESGGGLVQPGGSLRLSCAASGFTFSTYGMSWVRQAPGKGLELVATINSNGDNTYYADSVKGRFTISRDNSKNTLYLQMNSLRAEDTAVYYCARAWPSITTVFAPYTLDYWGQGTLVTVSS VL: DIQMTQSPSSLSASVGDRVTITCRASSSVSSSFLHWYQQKPGKAPKLLIYSTSNLASGVPSRFSGSGSGTDFTLTISSLQPEDFATYYCQQYSGYPLTFGQGTKLEIK |  |  |  | binds | no binding (tested: last point between 1 and 10 nM)
5 | S5-G-03-H5 (antibody, V domains shown, Humanized variant of S5-G-03; also called S5-G03-H2L2; SG-5-03-H5) VH: EVQLLESGGGLVQPGGSLRLSCAASGFTFSTYGMSWVRQAPGKGLELVATINSNGDNTYYADSVKGRFTISRDNSKNTLYLQMNSLRAEDTAVYYCARAWPSITTVFAPYTLDYWGQGTLVTVSS VL: DIQMTQSPSSLSASVGDRVTITCRASSSVSSSFLHWYQQKPGKAPKLWIYSTSNLASGVPSRFSGSGSGTDYTLTISSLQPEDFATYYCQQYSGYPLTFGQGTKLEIK |  |  |  | binds | no binding (tested: last point between 1 and 10 nM)
6 | S5-174-H5 (antibody, V domains shown, Humanized variant of S5-174; also called S5-174-H3L1) VH: QVQLVQSGAEVKKPGSSVKLSCKASGYTFTNYWMHWVRQAPGQGLEWVGEIDPSDGYVTYAQKFQGRATLTVDKSTSTAYMELSSLRSEDTAVYYCAGVYYGNSIYYAMDYWGQGTLVTVSS VL: DIQMTQSPSSLSASVGDRVTITCRASQDVGTAVAWYQQKPGKAPKLLIYWTSTRHTGVPSRFSGSGSGTDFTLTISSLQPEDFATYYCQQYRSYPFTFGQGTKLEIK |  |  |  | binds | no binding (tested: last point between 1 and 10 nM)

Further lines, with some results ahead:

Row | Kd [1] [nM] | koff [1] [s⁻¹] | kon [1] [M⁻¹ s⁻¹] | binding result [3] | Binder | binding result [2]
7 |  |  |  | binds | S5-174-H6 (antibody, V domains shown, Humanized variant of S5-174; also called S5-174-H3L2) VH: QVQLVQSGAEVKKPGSSVKLSCKASGYTFTNYWMHWVRQAPGQGLEWVGEIDPSDGYVTYAQKFQGRATLTVDKSTSTAYMELSSLRSEDTAVYYCAGVYYGNSIYYAMDYWGQGTLVTVSS VL: DIQMTQSPSSLSTSVGDRVTITCRASQDVGTAVAWYQQKPGKAPKLLIYWTSTRHTGVPSRFSGSGSGTDFTLTISSVQPEDLATYYCQQYRSYPFTFGQGTKLEIK | no binding (tested: last point between 1 and 10 nM)
8 |  |  |  | binds | S5-174-H8 (antibody, V domains shown, Humanized variant of S5-174; also called S5-174-H4L2) VH: QVQLVQSGAEVKKPGSSVKLSCKASGYTFTNYWMHWVRQAPGQGLEWVGEIDPSDGYVTYAQKFQGRATLTVDRSTSTAYMELSSLRSEDTAVYYCAGVYYGNSIYYAMDYWGQGTLVTVSS VL: DIQMTQSPSSLSTSVGDRVTITCRASQDVGTAVAWYQQKPGKAPKLLIYWTSTRHTGVPSRFSGSGSGTDFTLTISSVQPEDLATYYCQQYRSYPFTFGQGTKLEIK | no binding (tested: last point between 1 and 10 nM)
9 |  |  |  | binds | S5-174-H7 (antibody, V domains shown, Humanized variant of S5-174; also called S5-174-H4L1) VH: QVQLVQSGAEVKKPGSSVKLSCKASGYTFTNYWMHWVRQAPGQGLEWVGEIDPSDGYVTYAQKFQGRATLTVDRSTSTAYMELSSLRSEDTAVYYCAGVYYGNSIYYAMDYWGQGTLVTVSS VL: DIQMTQSPSSLSASVGDRVTITCRASQDVGTAVAWYQQKPGKAPKLLIYWTSTRHTGVPSRFSGSGSGTDFTLTISSLQPEDFATYYCQQYRSYPFTFGQGTKLEIK | no binding (tested: last point between 1 and 10 nM)
10 |  |  |  | binds | S5-174-H3 (antibody, V domains shown, Humanized variant of S5-174; also called S5-174-H2L1) VH: QVQLVQSGAEVKKPGSSVKVSCKASGYTFTNYWMHWVRQAPGQGLEWMGEIDPSDGYVTYAQKFQGRVTITVDKSTSTAYMELSSLRSEDTAVYYCAGVYYGNSIYYAMDYWGQGTLVTVSS VL: DIQMTQSPSSLSASVGDRVTITCRASQDVGTAVAWYQQKPGKAPKLLIYWTSTRHTGVPSRFSGSGSGTDFTLTISSLQPEDFATYYCQQYRSYPFTFGQGTKLEIK | no binding (tested: last point between 1 and 10 nM)
